The source of these data is patent publication US20250340662A1 (AKIRAM THERAPEUTICS, published 2025).

Assay [1] addresses T1, Human v6-peptide (human, N-terminal biotin).
T1 construct: Bachem #4108947, 43 amino acids, synthetic; also called Hm v6-peptide; hm v6-peptide
T1 peptide: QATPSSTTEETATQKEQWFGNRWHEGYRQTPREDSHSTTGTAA
Briefly: SPR SCK, biotin-peptide on SA chip, antibody injected. On the procedure:
(§1) For kinetic measurements of human v6-peptide, a streptavidin (SA) sensor chip was used to immobilize the v6-peptide at approximately 20 RU. A five-fold dilution series of each antibody, consisting of five concentrations ranging between 50 nM-0.08 nM, were prepared in running buffer and sequentially injected over the chip surfaces.
(§2) All experiments were performed at 25° C. in running buffer (HBS supplemented with 0.05% Tween20, pH 7.5) and the chip surfaces were regenerated with 10 mM glycine-HCl, pH 2.1. By subtracting the response curve of a reference surface (an α-human Kappa antibody immobilized surface or a streptavidin immobilized surface) and to a blank run (running buffer injected instead of antigen or antibody) response curve sensorgrams were obtained. Data was analyzed using the Biacore T200 Evaluation 3.1 software and a 1:1 Langmuir binding model.

The target in assay [2] is T2, Human CD44v6 iso4-Fc (human, UniProt P16070-4 21-606, limits assumed, chemically biotinylated in the form called Bio-CD44v6).
T2 construct: Custom ordered from ProMab, produced in HKB11 cells; The biotinylated and the plain form are kept as one molecule; also called Bio-CD44v6; bio-CD44v6
T2 sequence (P16070 other isoform, or with tags, fused parts or gaps limits assumed): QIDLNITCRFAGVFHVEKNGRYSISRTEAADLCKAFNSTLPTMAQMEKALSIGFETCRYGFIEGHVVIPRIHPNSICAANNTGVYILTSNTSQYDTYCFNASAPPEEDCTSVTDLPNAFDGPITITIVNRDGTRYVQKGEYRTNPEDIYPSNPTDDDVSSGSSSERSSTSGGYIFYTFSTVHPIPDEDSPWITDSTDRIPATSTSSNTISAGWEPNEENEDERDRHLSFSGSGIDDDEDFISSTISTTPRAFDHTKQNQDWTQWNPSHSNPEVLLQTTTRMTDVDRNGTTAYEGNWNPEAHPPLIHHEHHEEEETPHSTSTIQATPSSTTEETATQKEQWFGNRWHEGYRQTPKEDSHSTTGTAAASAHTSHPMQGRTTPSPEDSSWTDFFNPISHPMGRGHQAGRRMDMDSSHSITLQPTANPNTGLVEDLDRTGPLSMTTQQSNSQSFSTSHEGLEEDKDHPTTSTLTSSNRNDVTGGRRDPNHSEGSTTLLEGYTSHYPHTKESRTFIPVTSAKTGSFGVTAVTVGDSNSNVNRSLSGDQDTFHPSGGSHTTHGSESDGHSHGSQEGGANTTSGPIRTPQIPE
In words: SPR SCK, antibody captured via anti-kappa, CD44v6-Fc injected. On the procedure:
(§3) Kinetic measurements were performed on a BIAcore T200 instrument (Cytiva) using a SCK approach. An α-human Kappa antibody (GE Healthcare #28958325), functioning as a capture ligand, was immobilized onto all four surfaces of a CM5-S amine sensor chip according to manufacturer's recommendations. Antibodies were injected and captured at equal response units (RU). A four-fold dilution series of CD44v6, consisting of five concentrations ranging between 80 nM-0.3 nM, were prepared in running buffer and sequentially injected over the chip surfaces. Single injections of 100 nM CD44 (negative control) was also performed.
as §2

In assay [3] the target is T1, Human v6-peptide. In words: SPR SCK, biotin-peptide on SA chip, antibody injected; apparent KD. On the procedure:
as §1, §2

The target in assay [4] is T2, Human CD44v6 iso4-Fc. Briefly: SPR SCK, antibody captured via anti-kappa, CD44v6-Fc injected; apparent KD. Here is the method: as §3, §2

In general, koff refers to the first-order rate constant of dissociation. The kon is a measure of how fast the partners come together.

B1: U-MN114-19 IgG4 S228P (antibody, V domains shown)
VH: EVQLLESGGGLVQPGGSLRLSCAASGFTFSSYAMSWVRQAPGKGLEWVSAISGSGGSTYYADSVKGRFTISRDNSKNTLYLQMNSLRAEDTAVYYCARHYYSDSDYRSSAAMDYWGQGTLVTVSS
VL: DIQMTQSPSSLSASVGDRVTITCRASQSISSYLNWYQQKPGKAPKLLIYAASSLQSGVPSRFSGSGSGTDFTLTISSLQPEDFATYYCQQDLYLLTFGQGTKLEIK
notes: Human IgG4 S228P (EU), kappa; also called MN19; parental clone
On to B1, for which the results for the koff in the assay with Human v6-peptide [1] and with Human CD44v6 iso4-Fc [2] were 0.00018 s⁻¹ and 0.001 s⁻¹, respectively. Further, the figures for the kon with Human v6-peptide [1] and in the assay with Human CD44v6 iso4-Fc [2] were 730000 M⁻¹ s⁻¹ and 320000 M⁻¹ s⁻¹, respectively. For the same molecule, the Kd with Human v6-peptide [3] was determined as 0.28 nM; with Human CD44v6 iso4-Fc [4], 3.3 nM.
